These results are taken from PMC7541222, “Novel single-domain antibodies against the EGFR domain III epitope exhibit the anti-tumor effect” (Journal of Translational Medicine, 2020).

For assay [1], the target named is T1, EGFR complete extracellular domain protein (Homo sapiens (assumed), UniProt P00533).
T1 construct: Epidermal growth factor receptor (EGFR, HER1, ERBB1), complete extracellular domain, bought; also called EGFR complete extracellular fragment; EGFR-ECD; source: bought: Shanghai Bootech BioSci. and Technol
Description: far-Western, overlay or dot blot; Western blotting: 0.5 ug EGFR complete extracellular domain separated by SDS-PAGE, transferred to PVDF; blot incubated with the sdAbs, then protein A-HRP, chemiluminescence. The conditions noted are these: both partners purified.

In assay [2] the target is T2, EGFR on human cancer cells A549, MCF-7 and DU145 (Homo sapiens, UniProt P00533).
T2 construct: Epidermal growth factor receptor (EGFR, HER1, ERBB1), endogenous on the surface of human cancer cell lines; also called HER1; ERBB1; source: endogenous, on live A549, MCF-7 and DU145 cells
Description: flow cytometry on cells; live cells (A549, MCF-7, DU145) in ice-cold PBS with BSA incubated with purified sdAbs; detected with protein A-FITC. Conditions: one partner purified. (In general: Flow cytometry measures light scatter and fluorescence of single cells or particles in a stream.)

In assay [3] the target is T3, EndoF1 (Elizabethkingia meningoseptica (assumed), UniProt P36911).
T3 construct: EndoF1, unrelated antigen used as negative control
Description: ELISA; wells of 96-well plates coated with EGFR protein fragment or unrelated antigens; purified sdAbs added; protein A-HRP, TMB, absorbance at 450 nm. Conditions: both partners purified. For orientation: In an ELISA, binding on a coated surface is turned into a signal by an enzyme label.

Assay [4] addresses T4, FGF21 (Homo sapiens (assumed), UniProt Q9NSA1).
T4 construct: FGF21, unrelated antigen used as negative control
The description is as above. Conditions: both partners purified.

In assay [5] the target is T5, BMP2 (Homo sapiens (assumed), UniProt P12643).
T5 construct: BMP2, unrelated antigen used as negative control
The assay is described as above. The conditions noted are these: both partners purified.

Assay [6] has as its target T3, EndoF1. Description: ELISA; monoclonal phage ELISA: wells of 96-well plates coated with EGFR protein fragment or unrelated antigens, blocked with 2% BSA; phage clones added; anti-M13-HRP, TMB, absorbance at 450 nm. The conditions noted are these: one partner purified.
Assay [7] has as its target T4, FGF21. Described as above. Conditions: one partner purified.
For assay [8], the target named is T5, BMP2. Described as above. The conditions noted are these: one partner purified.

T4 sequence (Q9NSA1 29-209): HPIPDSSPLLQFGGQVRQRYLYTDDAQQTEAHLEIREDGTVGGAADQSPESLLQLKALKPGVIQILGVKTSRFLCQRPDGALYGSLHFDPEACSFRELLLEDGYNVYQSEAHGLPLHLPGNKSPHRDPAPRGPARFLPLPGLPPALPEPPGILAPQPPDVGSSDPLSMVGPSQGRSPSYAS
T3 sequence (P36911 51-339): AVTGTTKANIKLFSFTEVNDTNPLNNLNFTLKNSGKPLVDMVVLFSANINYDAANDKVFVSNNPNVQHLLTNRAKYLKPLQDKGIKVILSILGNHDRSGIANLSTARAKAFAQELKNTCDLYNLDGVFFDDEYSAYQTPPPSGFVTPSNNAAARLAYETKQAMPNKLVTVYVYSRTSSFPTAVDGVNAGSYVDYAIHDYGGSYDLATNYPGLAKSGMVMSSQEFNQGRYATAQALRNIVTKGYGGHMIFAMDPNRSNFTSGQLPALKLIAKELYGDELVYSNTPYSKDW
T5 sequence (P12643 24-396): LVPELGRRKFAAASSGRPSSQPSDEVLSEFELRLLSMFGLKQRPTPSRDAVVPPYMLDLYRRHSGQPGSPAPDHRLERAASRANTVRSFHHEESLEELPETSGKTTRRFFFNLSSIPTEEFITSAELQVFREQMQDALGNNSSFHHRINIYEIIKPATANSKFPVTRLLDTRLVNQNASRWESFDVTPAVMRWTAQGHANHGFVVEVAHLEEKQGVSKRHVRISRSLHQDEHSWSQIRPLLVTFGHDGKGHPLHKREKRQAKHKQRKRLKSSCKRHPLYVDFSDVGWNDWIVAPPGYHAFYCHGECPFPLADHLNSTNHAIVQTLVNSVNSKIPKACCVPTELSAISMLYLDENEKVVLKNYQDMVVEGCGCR

B1: anti-EGFR single-domain antibody aEG1B4 (purified) (VHH)
VHH: QVQLLESGGGLVQPGGSLRLSCAASGVNVSNEVMSWVRQAPGKGLEWVSTIANHSGSTYYADSVKGRFTISRDNSKNTLYLQMNSLRAEDTAVYYCATLYSGATKQLEYWGQGTLVTVSS
notes: fully human VH domain on the V3-23/D47 framework with diversified CDR1-3; Fully human VH-only single-domain antibody (about 15 kDa), selected from the Source BioScience human domain antibody library; subcloned NcoI/NotI into pET22b(+); also called anti-EGFR sdAb; source: E. coli BL21 (DE3), pET22b(+), purified (Ni-NTA)
With B1, the binding result in assay [1] is “binds”; in assay [2], “binds”; with EndoF1 [3], “no binding”; in the assay with FGF21 [4], “no binding”; in the assay with BMP2 [5] it was “no binding”.

B2: aEG1B4 displayed on phage (phage clone) (VHH)
VHH: QVQLLESGGGLVQPGGSLRLSCAASGVNVSNEVMSWVRQAPGKGLEWVSTIANHSGSTYYADSVKGRFTISRDNSKNTLYLQMNSLRAEDTAVYYCATLYSGATKQLEYWGQGTLVTVSS
notes: detected by anti-M13-HRP; source: E. coli TG1, phagemid pR2, rescued with M13 helper phage, phage clone
As for B2, the binding result with EndoF1 [6], with FGF21 [7] and with BMP2 [8] was “no binding” each time.

B3: anti-EGFR single-domain antibody aEG2E12 (purified) (VHH)
VHH: QVQLLESGGGLVQPGGSLRLSCAASGYSSNNEFMAWVRQAPGKGLEWVSAISTRNGSTYYADSVKGRFTISRDNSKNTLYLQMNSLRAEDTAVYYCAGVSYRRPQQLKYWGQGTLVTVSS
notes: as for B1
With B3, the binding result was “binds” in assay [1]; “binds” in assay [2]; “no binding” in the assay with EndoF1 [3]; “no binding” with FGF21 [4]; “no binding” with BMP2 [5].

B4: aEG2E12 displayed on phage (phage clone) (VHH)
VHH: QVQLLESGGGLVQPGGSLRLSCAASGYSSNNEFMAWVRQAPGKGLEWVSAISTRNGSTYYADSVKGRFTISRDNSKNTLYLQMNSLRAEDTAVYYCAGVSYRRPQQLKYWGQGTLVTVSS
notes: as for B2
Turning to B4, the binding result with EndoF1 [6], with FGF21 [7] and with BMP2 [8] was “no binding” each time.

B5: anti-EGFR single-domain antibody aEG4D9 (purified) (VHH)
VHH: QVQLLESGGGLVQPGGSLRLSCAASGDMLSPDNMTWVRQAPGKGLEWVSTIHKTDGSTYYADSVKGRFTISRDNSKNTLYLQMNSLRAEDTAVYYCAGLRSRGLSSKYLEYWGQGTLVTVSS
notes: as for B1
Take B5: the binding result in assay [1] is given as “binds”; in assay [2], “binds”; with EndoF1 [3], “no binding”; with FGF21 [4] it was “no binding”; with BMP2 [5], “no binding”.

B6: aEG4D9 displayed on phage (phage clone) (VHH)
VHH: QVQLLESGGGLVQPGGSLRLSCAASGDMLSPDNMTWVRQAPGKGLEWVSTIHKTDGSTYYADSVKGRFTISRDNSKNTLYLQMNSLRAEDTAVYYCAGLRSRGLSSKYLEYWGQGTLVTVSS
notes: as for B2
Regarding B6, the binding result with EndoF1 [6], with FGF21 [7] and with BMP2 [8] was “no binding” in each case.

B7: anti-EGFR single-domain antibody aEG2C7 (purified) (VHH)
VHH: QVQLLESGGGLVQPGGSLRLSCAASGFTFNNEIMAWVRQAPGKGLEWVSSIAANNGSTYYADSVKGRFTISRDNSKNTLYLQMNSLRAEDTAVYYCARYAAEPHTYSMGNKSLRYWGQGTLVTVSS
notes: as for B1
Take B7: the binding result in assay [1] is listed as “binds”; in assay [2], “binds”; with EndoF1 [3], “no binding”; with FGF21 [4], “no binding”; in the assay with BMP2 [5] it was “no binding”.

B8: aEG2C7 displayed on phage (phage clone) (VHH)
VHH: QVQLLESGGGLVQPGGSLRLSCAASGFTFNNEIMAWVRQAPGKGLEWVSSIAANNGSTYYADSVKGRFTISRDNSKNTLYLQMNSLRAEDTAVYYCARYAAEPHTYSMGNKSLRYWGQGTLVTVSS
notes: as for B2
As for B8, the binding result with EndoF1 [6], with FGF21 [7] and in the assay with BMP2 [8] was “no binding” throughout.

B9: anti-EGFR single-domain antibody aEG6B2 (purified) (VHH)
VHH: QVQLLESGGGLVQPGGSLRLSCAASGFNVNPKYMTWVRQAPGKGLEWVSSIRSPGGSTYYADSVKGRFTISRDNSKNTLYLQMNSLRAEDTAVYYCASVSRDEKYMRFWGQGTLVTVSS
notes: as for B1
In the case of B9, the binding result in assay [1] was “binds”; in assay [2] it was “binds”; with EndoF1 [3], “no binding”; with FGF21 [4], “no binding”; with BMP2 [5], “no binding”.

B10: aEG6B2 displayed on phage (phage clone) (VHH)
VHH: QVQLLESGGGLVQPGGSLRLSCAASGFNVNPKYMTWVRQAPGKGLEWVSSIRSPGGSTYYADSVKGRFTISRDNSKNTLYLQMNSLRAEDTAVYYCASVSRDEKYMRFWGQGTLVTVSS
notes: as for B2
On to B10, for which the binding result with EndoF1 [6], in the assay with FGF21 [7] and with BMP2 [8] was “no binding” each time.
